Values belong to the molecule of their own block, whether it stands above or below them. Ends that are not written are not given here.
Key:
[1] = biological target: Cyr61/CCN1 (UniProt O00622); assay: ELISA; competitive ELISA: wells coated with multimeric VTNC (25 ng/well); Cyr61 (30 nM) co-incubated for 90 minutes with increasing concentrations of soluble VTNC forms, SMTB 1–44 or ixolaris; VTNC-bound Cyr61 detected with anti-Cyr61 antibody
[2] = biological target: somatomedin B domain (SMTB 1–44) of vitronectin (human); assay: SPR; kinetics, Biacore T100: monomeric (667.4 RU) or multimeric (625.2 RU) VTNC or SMTB 1–44 (337.2 RU) immobilized on CM5 by amine coupling; analyte injected 90 s at 30 µl/minute, 25°C, HBS-P (10 mM Hepes pH 7.4, 150 mM NaCl, 0.005% P20); Cyr61 fitted by the global two-state (conformational change) model, PAI-1 by the Langmuir 1:1 model
[3] = biological target: somatomedin B domain (SMTB 1–44) of vitronectin (human); assay: ELISA; competition: SMTB 1–44 (1.25 µg/well) immobilized; Cyr61 (30 nM) mixed with stable mutant PAI-1 (0, 50, 500 nM) or ixolaris (500 nM) in PBS-T, added for 90 minutes; bound Cyr61 detected with anti-Cyr61 antibody
[4] = biological target: denatured multimeric human vitronectin (VTNC) (human)
[5] = biological target: denatured multimeric human vitronectin (VTNC) (human); assay: ELISA; solid-phase binding assay as a3 on multimeric VTNC, in TBS 0.4% Tween supplemented with 0.5% gelatin; apparent KD
[6] = biological target: somatomedin B domain (SMTB 1–44) of vitronectin (human); assay: ELISA; solid-phase binding assay: VTNC (25 ng/well) or SMTB 1–44 (2.5 µg/well) immobilized on plates, Cyr61 0–1 µM in PBS-0.4% Tween 20 for 90 minutes, detected with anti-Cyr61 monoclonal antibody; apparent KD by Langmuir isotherm
[7] = biological target: denatured multimeric human vitronectin (VTNC) (human); assay: SPR; kinetics, Biacore T100: monomeric (667.4 RU) or multimeric (625.2 RU) VTNC or SMTB 1–44 (337.2 RU) immobilized on CM5 by amine coupling; analyte injected 90 s at 30 µl/minute, 25°C, HBS-P (10 mM Hepes pH 7.4, 150 mM NaCl, 0.005% P20); Cyr61 fitted by the global two-state (conformational change) model, PAI-1 by the Langmuir 1:1 model
[8] = biological target: native monomeric human vitronectin (VTNC) (human); assay: as above
[9] = biological target: denatured multimeric human vitronectin (VTNC) (human); assay: ELISA; solid-phase binding assay: VTNC (25 ng/well) or SMTB 1–44 (2.5 µg/well) immobilized on plates, Cyr61 0–1 µM in PBS-0.4% Tween 20 for 90 minutes, detected with anti-Cyr61 monoclonal antibody; apparent KD by Langmuir isotherm
[10] = biological target: native monomeric human vitronectin (VTNC) (human); assay: as above
[11] = biological target: PAI-1 (recombinant stable mutant form) (UniProt P05121); assay: ITC; VP-ITC, 30°C, 5 µL injections of 10 µM SMTB 1–44 into 1 µM PAI-1 or Cyr61 in the cell; 20 mM Tris-HCl, 0.15 M NaCl, pH 7.4; single-site model

percent inhibition of Cyr61 binding to immobilized VTNC at 15 µg/ml [1]: > 50%
Molecule: denatured multimeric human vitronectin (VTNC) (natural protein)

Kd [2]: 0.0433 nM
koff [2]: 0.0001 s⁻¹
kon [2]: 2.31e+06 M⁻¹ s⁻¹
percent inhibition of Cyr61 binding to SMTB 1–44 at 500 nM PAI-1 [3]: > 80%
inhibition of adhesion of uPAR-bearing PMA-differentiated U937 cells to VTNC-coated wells pre-incubated with stable mutant PAI-1 (1.5 µM); pair blocked: uPAR with VTNC [4]: > 90%
Molecule: PAI-1 (recombinant stable mutant form) (from UniProt P05121 24-402) (natural protein)

Kd [5]: 36.5 nM
Kd [6]: 27.2 nM
Kd [7]: 27.6 nM
ka1 (two-state model, step 1) [7]: 104000 M⁻¹ s⁻¹
ka2 (two-state model, step 2) [7]: 0.00255 s⁻¹
kd1 (two-state model, step 1) [7]: 0.0695 s⁻¹
kd2 (two-state model, step 2) [7]: 0.00011 s⁻¹
Kd [8]: 5.66 nM
ka1 (two-state model, step 1) [8]: 568000 M⁻¹ s⁻¹
ka2 (two-state model, step 2) [8]: 0.00783 s⁻¹
kd1 (two-state model, step 1) [8]: 0.0245 s⁻¹
kd2 (two-state model, step 2) [8]: 0.00118 s⁻¹
Kd [2]: 10.1 nM
ka1 (two-state model, step 1) [2]: 127000 M⁻¹ s⁻¹
ka2 (two-state model, step 2) [2]: 0.0109 s⁻¹
kd1 (two-state model, step 1) [2]: 0.025 s⁻¹
kd2 (two-state model, step 2) [2]: 0.000592 s⁻¹
Kd [9]: 22.6 nM
Kd [10]: 26.5 nM
inhibition of adhesion of uPAR-bearing PMA-differentiated U937 cells to VTNC-coated wells pre-incubated with Cyr61 (1.5 µM); pair blocked: uPAR with VTNC [4]: 40%
B1: Cyr61/CCN1 (natural protein)
chain: TCPAACHCPLEAPKCAPGVGLVRDGCGCCKVCAKQLNEDCSKTQPCDHTKGLECNFGASSTALKGICRAQSEGRPCEYNSRIYQNGESFQPNCKHQCTCIDGAVGCIPLCPQELSLPNLGCPNPRLVKVTGQCCEEWVCDEDSIKDPMEDQDGLLGKELGFDASEVELTRNNELIAVGKGSSLKRLPVFGMEPRILYNPLQGQKCIVQTTSWSQCSKTCGTGISTRVTNDNPECRLVKETRICEVRPCGQPVYSSLKKGKKCSKTKKSPEPVRFTYAGCLSVKKYRPKYCGSCVDGRCCTPQLTRTVKMRFRCEDGETFSKNVMMIQSCKCNYNCPHANEAAFPFYRLFNDIHKFRD

Kd [11]: < 1 nM
dH [11]: -24 kcal/mol
stoichiometry N [11]: 0.77
B2: somatomedin B domain (SMTB 1–44) of vitronectin (peptide)
peptide: DQESCKGRCTEGFNVDKKCQCDELCSYYQSCCTDYTAECKPQVT
modifications: disulfide (positions not given here); also: eight oxidized cysteines, pairing not given here

Source: publication PMC2829074
